Numbering of substitutions follows the chain as printed.

The results in this text go back to US20250092133A1 (Amgen, published 2025).

Experiment [1] concerns the target T1, Hu CDH3 Dom1B mu (aa 144-179), human/mouse chimeric CDH3 on CHO cells (chimeric hu/mu, UniProt P22223 108-681 (human entry)).
T1 chain: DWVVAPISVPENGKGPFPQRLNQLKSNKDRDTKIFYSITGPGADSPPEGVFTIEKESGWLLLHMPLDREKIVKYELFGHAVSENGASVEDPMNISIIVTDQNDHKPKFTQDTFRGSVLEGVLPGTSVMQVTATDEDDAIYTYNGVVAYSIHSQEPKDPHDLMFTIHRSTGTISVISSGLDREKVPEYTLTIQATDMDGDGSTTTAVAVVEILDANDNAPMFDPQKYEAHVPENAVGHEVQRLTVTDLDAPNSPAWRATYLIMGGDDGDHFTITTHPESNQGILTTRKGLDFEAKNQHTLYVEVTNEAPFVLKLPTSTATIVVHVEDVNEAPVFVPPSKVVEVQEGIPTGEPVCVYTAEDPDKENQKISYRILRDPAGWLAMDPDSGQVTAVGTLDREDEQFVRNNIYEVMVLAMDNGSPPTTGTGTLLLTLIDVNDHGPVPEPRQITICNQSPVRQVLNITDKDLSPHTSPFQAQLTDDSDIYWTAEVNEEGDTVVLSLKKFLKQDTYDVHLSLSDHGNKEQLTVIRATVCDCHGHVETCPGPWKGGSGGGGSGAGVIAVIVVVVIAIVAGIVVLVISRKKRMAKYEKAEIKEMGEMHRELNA
The experiment can be described thus: flow cytometry, transfected CHO cells; crude periplasmic scFv extract; anti-FLAG M2 + anti-mouse IgG Fcγ-PE. As for the experimental part:
(§1) Cells transfected with human or murine CDH3, or with the chimeric human/mouse CDH3 molecules (see Example 1) were stained with crude, undiluted periplasmic extract containing scFv binding to human/macaque CDH3. […] As negative control, cells were incubated with PBS/2% FCS instead of the periplasmic extract. The samples were measured by flow cytometry.
For orientation: Flow cytometry measures light scatter and fluorescence of single cells or particles in a stream.

The target in experiment [2] is T2, Hu CDH3 Dom3 mu (aa 328-440), human/mouse chimeric CDH3 on CHO cells (chimeric hu/mu). The experiment can be described thus: flow cytometry, transfected CHO cells; crude undiluted periplasmic scFv extract; anti-FLAG M2 + anti-mouse IgG Fcγ-PE; control PBS/2% FCS. As for the experimental part: as §1
The target of experiment [3] is T3, Hu CDH3 Dom1C mu (aa 180-215), human/mouse chimeric CDH3 on CHO cells (chimeric hu/mu, UniProt P22223 108-681 (human entry)).
T3 chain: T1 chain with T52A, I53V, S57T, H63N, M64K, K70E, V72A, F77Y, D90E, H104N
The description is as above. On the procedure:
as §1

For experiment [4], the target named is T4, human CDH3 (P-cadherin) on cells (human, UniProt P22223 108-829).
T4 construct: The entry includes signal peptide and pro-peptide; extracellular domain D1 starts at aa 108; also called hu CDH3; hu CDH-3
The experiment is described as above. On the procedure:
as §1

Experiment [5] addresses T5, Hu CDH3 Dom2 mu (aa 216-327), human/mouse chimeric CDH3 on CHO cells (chimeric hu/mu).
T5 chain: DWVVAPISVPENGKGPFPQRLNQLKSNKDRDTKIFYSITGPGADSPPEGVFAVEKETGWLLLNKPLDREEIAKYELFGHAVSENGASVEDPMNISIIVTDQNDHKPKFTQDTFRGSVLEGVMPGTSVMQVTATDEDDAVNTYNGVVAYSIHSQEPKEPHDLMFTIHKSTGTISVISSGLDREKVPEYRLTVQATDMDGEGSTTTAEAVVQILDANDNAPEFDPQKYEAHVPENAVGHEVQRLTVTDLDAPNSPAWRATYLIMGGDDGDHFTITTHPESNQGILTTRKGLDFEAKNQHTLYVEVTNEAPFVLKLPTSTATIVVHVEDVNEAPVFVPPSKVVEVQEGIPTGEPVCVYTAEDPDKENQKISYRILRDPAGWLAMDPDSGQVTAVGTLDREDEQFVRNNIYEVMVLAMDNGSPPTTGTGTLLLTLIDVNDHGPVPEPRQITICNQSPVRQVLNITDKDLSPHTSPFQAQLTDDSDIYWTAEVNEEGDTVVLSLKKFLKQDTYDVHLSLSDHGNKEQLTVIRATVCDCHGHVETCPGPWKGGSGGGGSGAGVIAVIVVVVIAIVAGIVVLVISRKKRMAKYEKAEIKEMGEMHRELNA
Described as above. On the procedure:
as §1

For experiment [6], the target named is T6, Hu CDH3 Dom3C mu (aa 404-440), human/mouse chimeric CDH3 on CHO cells (chimeric hu/mu, UniProt P22223 108-681 (human entry)). The experiment can be described thus: flow cytometry, transfected CHO cells; crude periplasmic scFv extract; anti-FLAG M2 + anti-mouse IgG Fcγ-PE. As for the experimental part: as §1
Experiment [7] addresses T7, murine CDH3 on cells (mouse, UniProt P10287 100-822).
T7 construct: negative control; also called mouse CDH3
T7 sequence: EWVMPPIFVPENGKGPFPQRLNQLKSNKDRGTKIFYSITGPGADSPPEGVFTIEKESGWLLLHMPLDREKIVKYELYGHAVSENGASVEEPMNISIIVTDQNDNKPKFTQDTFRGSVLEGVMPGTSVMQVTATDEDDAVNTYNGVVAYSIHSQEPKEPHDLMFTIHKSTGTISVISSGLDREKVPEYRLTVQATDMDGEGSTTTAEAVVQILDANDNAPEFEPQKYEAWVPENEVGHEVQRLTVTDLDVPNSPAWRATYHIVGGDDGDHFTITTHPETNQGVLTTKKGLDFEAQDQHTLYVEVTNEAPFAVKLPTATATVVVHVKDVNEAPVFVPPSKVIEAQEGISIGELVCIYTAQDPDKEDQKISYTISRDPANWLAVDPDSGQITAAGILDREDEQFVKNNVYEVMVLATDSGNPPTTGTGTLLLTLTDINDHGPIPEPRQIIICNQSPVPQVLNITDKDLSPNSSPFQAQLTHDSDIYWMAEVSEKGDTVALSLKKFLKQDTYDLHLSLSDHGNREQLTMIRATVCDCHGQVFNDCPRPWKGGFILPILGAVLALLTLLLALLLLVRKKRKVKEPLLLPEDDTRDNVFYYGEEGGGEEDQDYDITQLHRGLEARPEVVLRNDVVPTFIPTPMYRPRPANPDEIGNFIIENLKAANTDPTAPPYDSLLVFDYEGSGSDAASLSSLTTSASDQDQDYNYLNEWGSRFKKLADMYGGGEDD
The experiment is described as above. As for the experimental part: as §1

The target in experiment [8] is Hu CDH3 Dom3A mu (aa 328-363), human/mouse chimeric CDH3 on CHO cells (chimeric hu/mu, UniProt P22223 108-681 (human entry)). Described as above. On the procedure:
as §1

Experiment [9] has as its target T2, Hu CDH3 Dom3 mu (aa 328-440), …. Described as above. On the procedure: as §1
For experiment [10], the target named is Hu CDH3 Dom3B mu (aa 364-403), human/mouse chimeric CDH3 on CHO cells (chimeric hu/mu, UniProt P22223 108-681 (human entry)). The experiment can be described thus: flow cytometry, transfected CHO cells; crude undiluted periplasmic scFv extract; anti-FLAG M2 + anti-mouse IgG Fcγ-PE; control PBS/2% FCS. As for the experimental part:
as §1

Experiment [11] concerns the target T6, Hu CDH3 Dom3C mu (aa 404-440), …. The experiment is described as above. As for the experimental part:
as §1

B1: CDH3-6 scFv (scFv)
scFv: EVQLVEESGPELVKPGASVKISCKASGYAFSSSWMNWVKQRPGKGLEWIGRIYPGDGETKYNGKFKGKATLTADKSSSTAYMQLSSLTSEDSAVYFCARQRDYGALYAMDYWGQGTSVTVSSGGGGSGGGGSGGGGSELVMTQSPASLSASVGETVTITCRASDDIYSYLAWYQQKQGKSPQLLVYNAKTLAEGVPSRFSGSGSGTQFSLKINSLQPEDFGTYYCQNHYVTPFTFGAGTKLEIK
Consider B1, for which the binding result in [1] is “no binding”; in experiment [2], “binds”; in experiment [3] it was “binds”; in experiment [4], “binds”; in experiment [5] it was “binds”.

B2: CDH3-32 scFv (scFv)
scFv: EVQLVEQPGAELVRPGTSVKLSCKASGYTFTSYWMHWVKQRPGQGLEWIGVIDTSDSYTIYNQKFKGKATLTVDTSSSTAYMQLSSLTSEDSSVYFCARSGPGYFDVWGQGTTVTVSSGGGGSGGGGSGGGGSELQMTQSPASLSASVGETVTITCRASENIYSYLAWYQQKQGKSPQLLVYNAKTLAEGVPSRFSGSGSGTQFSLKINSLQPEDFGSYYCQHHYGTPYTFGGGTKLEIK
In the case of B2, the binding result is “no binding” in experiment [6]; “no binding” in experiment [7]; “no binding” in [8]; “no binding” in experiment [9]; “binds” in experiment [4]; “binds” in experiment [5]. Further, in experiment [10], the binding result was “binds”.

B3: CDH3-33 scFv (scFv)
scFv: EVQLVEQPGAELVRPGTSVKLSCKASGYTFTSYWMHWVKQRPGQGLEWIGVIDTSDSYTIYNQKFKGKATLTVDTSSSTAYMQLSSLTSGDSSVYFCARSGPGYFDVWGQGTTVTVSSGGGGSGGGGSGGGGSELVMTQSPASLSASVGETVTITCRASGNIHNYLAWYQQKQGKSPQLLVYNAKTLADGVPSRFSGSGSGTQYSLKINSLQPEDFGTYYCQHFWSTPYTFGGGTKLEIK
For the molecule B3, the binding result is “no binding” in experiment [7]; “no binding” in [9]; “binds” in experiment [11]; “binds” in experiment [4]; “binds” in experiment [5]; “binds” in [10].

B4: CDH3-5 (scFv)
scFv: EVQLVEQSGAELVKPGASVKISCKASGYAFSTSWMNWVKQRPGKGLEWIGRIYPGDGETKYNGKFKGKATLTADKSSSTAYMQLSSLTSEDSAVYFCARQRDYGALYALDYWGQGTRVTVSSGGGGSGGGGSGGGGSELMMTQTPASLSASVGETVTFTCRASENIYSYLAWYQQKQGKSPQLLVYNAKTLAEGVPSRFSGSGSGTQFSLKINSLQPEDFGSYYCQHHYVPPYTFGGGTKLEIK
notes: Used as crude periplasmic extract and detected through a FLAG tag; also called CDH3-5 scFv
Consider B4, for which the binding result is listed as “no binding” in experiment [1], “binds” in experiment [3], “binds” in experiment [4] and “binds” in experiment [5].

B5: CDH3-7 (scFv)
scFv: EVQLVEQSGAELVKPGASVKISCKASGYAFSSSWMNWVKQRPGKGLEWIGRIYPGDGETKYNGKFKGKATLTADKSSSTAYMQLSTLTSEDSAVYFCARQRDYGALYAMDYWGQGTSVTVSSGGGGSGGGGSGGGGSELQMTQSPASLSASVGETVTITCRLSENIYSYLAWYRQKEGESPQLLVYNSKTLAEGVPSRFSGSGSGTQFSLKINSLQPEDFGNYYCQNHYGFPFTFGAGTKLEIK
notes: Used as crude periplasmic extract and detected through a FLAG tag; also called CDH3-7 scFv
Take B5: the binding result in experiment [2] is reported as “binds”.
